Measurements from US20240150476A1 (Chugai, published 2024).
One block for each binder: values may come before it.

Tests used:
human CD3ed-Fc = target: T1, human CD3ed-Fc (human); test: phage display: panning on biotin-labeled human CD3ed-Fc and/or phage ELISA
T1 construct: Biotinylated in culture with BirA; The heterodimer fraction was purified; also called biotin-labeled protein containing human CD3 epsilon and human CD3 delta linked to a human antibody constant region; CD3 epsilon-delta heterodimer fused with the antibody constant region
T1 chain 1: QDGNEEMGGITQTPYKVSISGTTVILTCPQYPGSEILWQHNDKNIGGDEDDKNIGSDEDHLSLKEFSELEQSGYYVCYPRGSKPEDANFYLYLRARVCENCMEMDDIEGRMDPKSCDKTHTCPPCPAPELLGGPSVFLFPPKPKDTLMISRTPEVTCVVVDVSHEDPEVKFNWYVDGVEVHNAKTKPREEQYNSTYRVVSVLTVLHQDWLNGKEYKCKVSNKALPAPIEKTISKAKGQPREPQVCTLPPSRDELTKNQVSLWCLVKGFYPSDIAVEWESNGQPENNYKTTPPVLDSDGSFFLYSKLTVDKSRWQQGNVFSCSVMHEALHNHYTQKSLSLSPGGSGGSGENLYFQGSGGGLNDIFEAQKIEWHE
T1 chain 2: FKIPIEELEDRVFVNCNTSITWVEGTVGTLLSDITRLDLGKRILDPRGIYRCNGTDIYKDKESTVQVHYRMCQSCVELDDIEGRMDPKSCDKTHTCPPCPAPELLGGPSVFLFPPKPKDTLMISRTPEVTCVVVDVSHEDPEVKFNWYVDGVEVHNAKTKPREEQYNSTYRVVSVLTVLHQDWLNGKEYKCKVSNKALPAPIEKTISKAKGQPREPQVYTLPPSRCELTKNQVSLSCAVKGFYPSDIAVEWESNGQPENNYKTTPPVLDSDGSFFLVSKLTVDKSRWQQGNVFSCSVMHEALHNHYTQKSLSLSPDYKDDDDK
Description: Next, BSA was added to the phage library solution so as to attain a final BSA concentration of 4%. […] The magnetic beads used were NeutrAvidin coated beads (FG beads NeutrAvidin) or Streptavidin coated beads (Dynabeads MyOne Streptavidin T1).
Specifically, 100 pmol of the biotin-labeled antigen was added to the prepared phage library solution, and the phage library solution was contacted with the antigen at room temperature for 60 minutes. The magnetic beads blocked with BSA were added thereto, and the complexes of the antigen and the phages were bound to the magnetic beads at room temperature for 15 minutes. The beads were washed twice with 0.5 mL of TBST (TBS containing 0.1% Tween 20; TBS was manufactured by Takara Bio Inc.) and then further washed once with 0.5 mL of TBS. Then, 0.5 mL of 1 mg/mL trypsin was added thereto, and the beads were suspended at room temperature for 15 minutes and immediately thereafter, separated using a magnetic stand to recover a phage solution. The recovered phage solution was added to 20 mL of an E. coli line ER2738 in an exponential stage of growth (OD600: 0.4-0.5). The E. coli was cultured with mild stirring at 37° C. for 1 hour and thereby infected by the phages. […] Next, the phages were recovered from the culture solution of the inoculated E. coli to prepare a phage library solution. This cycle, called panning, was repeated twice. In the second cycle of panning, the beads were washed three times with TBST and subsequently twice with TBS. Also, 4 nmol of human Fc was added in the case of the panning against the human CD3ed-Fc.

IL6R90-G1m/lamL [1] = target: T2, IL6R90-G1m/lamL (Homo sapiens (Human), UniProt P0DOY2 1-106); test: BLI (Octet HTX), hsIL-6R-BAP1 on streptavidin sensor, molecule as analyte, 30 C
T2 construct: IgG antibody-like molecule lacking VL

20A11-G1m/VK2-28-k0MT = target: T3, 20A11-G1m/VK2-28-k0MT; test: BLI (Octet), in the same way as in Example 3
T3 construct: IgG antibody-like molecule

20A11hu-G1m/VK2-28-k0MT = target: T4, 20A11hu-G1m/VK2-28-k0MT (Homo sapiens (Human), UniProt P0DOX5 2-447 = IgG part); test: BLI (Octet), in the same way as in Example 3, 30 C or 25 C
T4 construct: IgG antibody-like molecule

IL6R90-G1m/VK2-28-k0MT = target: T5, IL6R90-G1m/VK2-28-k0MT; test: BLI (Octet HTX), molecule captured on Protein A biosensor, hsIL-6R as analyte, 30 C
T5 construct: IgG antibody-like molecule
Description: (§1) The hsIL-6R binding evaluation of each molecule was conducted using Octet HTX (Pall ForteBio Corp.). Specifically, each molecule was bound to Biosensor/Protein A (ProA) (Pall ForteBio Corp., 18-5013), and hsIL-6R was allowed to act thereon, followed by binding evaluation at 30° C.

IL6R90-G1m/lamL [2] = target: T2, IL6R90-G1m/lamL; test: as above
Description: as §1

T4 sequence (P0DOX5 other isoform, or with tags, fused parts or gaps, chain 1 of 2): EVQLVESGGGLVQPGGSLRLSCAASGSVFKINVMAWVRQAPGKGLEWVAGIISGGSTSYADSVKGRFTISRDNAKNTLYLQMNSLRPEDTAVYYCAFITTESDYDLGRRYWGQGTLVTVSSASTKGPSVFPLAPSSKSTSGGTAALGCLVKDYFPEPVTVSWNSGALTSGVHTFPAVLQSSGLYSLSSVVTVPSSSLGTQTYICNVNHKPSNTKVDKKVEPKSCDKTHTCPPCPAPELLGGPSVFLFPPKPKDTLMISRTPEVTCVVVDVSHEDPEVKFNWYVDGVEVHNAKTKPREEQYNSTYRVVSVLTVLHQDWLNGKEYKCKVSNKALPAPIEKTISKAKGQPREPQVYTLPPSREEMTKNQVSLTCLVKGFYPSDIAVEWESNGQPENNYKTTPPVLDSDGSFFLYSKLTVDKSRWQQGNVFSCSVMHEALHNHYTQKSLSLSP
T4 sequence (light, as listed by the source, chain 2 of 2): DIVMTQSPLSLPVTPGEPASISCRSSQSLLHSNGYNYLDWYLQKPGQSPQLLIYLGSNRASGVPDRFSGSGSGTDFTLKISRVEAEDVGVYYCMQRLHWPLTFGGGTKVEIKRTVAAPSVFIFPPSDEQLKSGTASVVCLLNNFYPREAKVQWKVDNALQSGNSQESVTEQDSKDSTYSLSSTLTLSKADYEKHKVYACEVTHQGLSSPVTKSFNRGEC
T3 sequence (heavy, as listed by the source, chain 1 of 2): as the sequence (P0DOX5 other isoform, or with tags, fused parts or gaps, chain 1 of 2) above, with V37Y, L45R, W47L counted along it
T3 sequence (light, as listed by the source, chain 2 of 2): as the sequence (light, as listed by the source, chain 2 of 2) above
T5 sequence (light, as listed by the source, chain 2 of 2, other chains not shown): as the sequence (light, as listed by the source, chain 2 of 2) above

B1: bC3edL1R1N164H01 (VHH)
VHH: QVQLVESGGGLVQPGGSLRLSCAASGFTFDVYGMSWVRHSPGKGLEWVSTINWNGGSTYYAESMKGRFTISRDNAKNTVYLQMNSLKPEDTAVYYCAKFAPWDGDMEWGQGTQVTVSG
binding result (human CD3ed-Fc): binds

B2: hsIL-6R-BAP1 (receptor)
chain: LAPRRCPAQEVARGVLTSLPGDSVTLTCPGVEPEDNATVHWVLRKPAAGSHPSRWAGMGRRLLLRSVQLHDSGNYSCYRAGRPAGTVHLLVDVPPEEPQLSCFRKSPLSNVVCEWGPRSTPSLTTKAVLLVRKFQNSPAEDFQEPCQYSQESQKFSCQLAVPEGDSSFYIVSMCVASSVGSKFSKTQTFQGCGILQPDPPANITVTAVARNPRWLSVTWQDPHSWNSSFYRLRFELRYRAERSKTFTTWMVKDLQHHCVIHDAWSGLRHVVQLRAQEEFGQGEWSEWSPEAMGTPWTESRSPPAENEVSTPMQALTTNKDDDNILFRDSANATSLPVQGGGGSGLNDIFEAQKIEWHE
modifications: biotin on the C-terminal AviTag sequence (BirA)
notes: also called hsIL-6R-Avitag; biotinylated soluble human IL6R
binding result (IL6R90-G1m/lamL [1]): binds

The next lines start with the values.

binding result (human CD3ed-Fc): binds
B3: bC3edL1R1N161H01 (VHH)
VHH: QVQLVESGGGLVQPGGSLRLSCAASGFPFDNYVMSWVRQAPGKGLEWISAISWNGGSTYYAESMKGRFTISRDNAKSTLYLQMNSLKSEDTAVYYCAKEPRVYYSGSPDYWGQGTQVTVSG

binding result (human CD3ed-Fc): binds
B4: bC3edL1R1N160H01 (VHH)
VHH: QVQLVESGGGLVQPGGSLRLSCAASGFTFNHCWMYWVRQAPGKGLEWVSVINTDGGSAYYADSVKGRFTISRDNAKNTLYLQMNSLKSEDTAVYYCARDWAPLVDYYYGMDYWGKGTLVTVSG

binding result (20A11-G1m/VK2-28-k0MT): binds | binding result (20A11hu-G1m/VK2-28-k0MT): no binding | binding result (IL6R90-G1m/VK2-28-k0MT): no binding | binding result (IL6R90-G1m/lamL [2]): binds
B5: soluble human IL-6R (receptor)
chain: LAPRRCPAQEVARGVLTSLPGDSVTLTCPGVEPEDNATVHWVLRKPAAGSHPSRWAGMGRRLLLRSVQLHDSGNYSCYRAGRPAGTVHLLVDVPPEEPQLSCFRKSPLSNVVCEWGPRSTPSLTTKAVLLVRKFQNSPAEDFQEPCQYSQESQKFSCQLAVPEGDSSFYIVSMCVASSVGSKFSKTQTFQGCGILQPDPPANITVTAVARNPRWLSVTWQDPHSWNSSFYRLRFELRYRAERSKTFTTWMVKDLQHHCVIHDAWSGLRHVVQLRAQEEFGQGEWSEWSPEAMGTPWTESRSPPAENEVSTPMQALTTNKDDDNILFRDSANATSLPVQ
notes: Expressed in CHO cells and purified from the supernatant; also called hsIL-6R; recombinant human IL6R
